According to publication PMC5708649, “A novel Porphyromonas gingivalis enzyme: An atypical dipeptidyl peptidase III with an ARM repeat domain” (PLoS ONE, 2017):

Tests used:
[1] = substrate: Cc1cc(=O)oc2cc(NC(=O)[C@H](CCCNC(=N)N)NC(=O)[C@@H](N)CCCNC(=N)N)ccc12; assay: purified protein, by the assay type; conditions: pH 8.0; 26.0 °C
[2] = substrate: N=C(N)NCCC[C@H](NC(=O)[C@@H](N)CCCNC(=N)N)C(=O)Nc1ccc2ccccc2c1; assay: purified protein, by the assay type; conditions: pH 8.0; 26.0 °C

B1: Full length PgDPP III (1–886 aa) (Porphyromonas gingivalis W83) (protein)
chain: MTKETTQHRSGERIARFADIEVLSYRADLFGTLTPKQRMLCYHLSEAALRGRDITTIQNCRYNLWVRSLMERIYTHLSKSERTDDFALLEEYLFCIWFANGIHHHYSGAKFIARFSPGFLRAALREAGVELEPEEQVLLERVLYDTDFLPKQTEQSGEEDIIKASSVNFYAPGITRAEAESHYKNLIEALPENEKSCPPSFGLNTRLIRSTSGELKDEVCCIDGLYGPAIEAVVASLEAAIPYTENEEQAACIRLLCDYYRTGDIRLYDRFCIRWVENNRTRIDFINGFTEVYADPIGIHGSWEGLVHMQDEEAGRRTRIISEHAGWFEAHSPIDARFRKKNPHGISATVVNVLTIAGDSYPATPIGINLPNADWIRAEHGSKSVTIDNITDAYNHAARGTGLYEEFIPDEEVRRHVELHADLTDSLHTDLHECLGHGSGQLLPGVPGDALGEHASTLEETRADLFALYFLADPKMIELGLLTDPDAYKANYYKYMLNGLMTQLVRIKRGEEIEEAHMRNRALIARYVLEHAERPGAMSLVCEEGKTALVIKDYEAVRAIIAGLLTEVQRIKSEGDYTAGKALVERYAVHVDPLLHEEVLTRYAKLDIAPYKGFVNPRLRPVYNSEGRLTDATIEYTEGYAEQMLRYSAEYSFLPTDSPLLQEARRLRSHLRRAMDGVLSASMREKGLHYGINFGVTREHLLRLARTADASAPLADYLWRRDVRETKILATMIFPAEELTHEQATRLLREADNVELREQLTANLLERMPEAIRSIGRWIESKETTPDMMTGVLTLAARLFTRGIFPEDVPAEKLLTLAILHLSDEEQKAELRRASALLLKRYGRGSAERTKKVLCLLPESSQDTAPVLYELCEDIRFELDFYPKDE
B1 was tested, and the Km [1] was 2.56 ± 0.32 µM, the kcat [1] was 0.29 ± 0.11 s⁻¹ and the kcat/Km [1] was 113000 M⁻¹ s⁻¹. The Km [2] was 0.97 ± 0.16 µM, the kcat [2] was 0.75 ± 0.13 s⁻¹ and the kcat/Km [2] was 773000 M⁻¹ s⁻¹.
